Test results reported in patent US9200265B2, “Anti-cocaine compositions and treatment” (priority 2006, dated 2015).
Several values for one entry are separate records, joined by “and”; a condition that tells them apart may be missing. Identical values can stand only once.

B1: T172R/G173Q (protein, UniProt Q9L9D7 1-574, looked up, variant T172R G173Q)
Cocaine esterase: MVDGNYSVASNVMVPMRDGVRLAVDLYRPDADGPVPVLLVRNPYDKFDVFAWSTQSTNWLEFVRDGYAVVIQDTRGLFASEGEFVPHVDDEADAEDTLSWILEQAWCDGNVGMFGVSYLGVTQWQAAVSGVGGLKAIAPSMASADLYRAPWYGPGGALSVEALLGWSALIGRQLITSRSDARPEDAADFVQLAAILNDVAGAASVTPLAEQPLLGRLIPWVIDQVVDHPDNDESWQSISLFERLGGLATPALITAGWYDGFVGESLRTFVAVKDNADARLVVGPWSHSNLTGRNADRKFGIAATYPIQEATTMHKAFFDRHLRGETDALAGVPKVRLFVMGIDEWRDETDWPLPDTAYTPFYLGGSGAANTSTGGGTLSTSISGTESADTYLYDPADPVPSLGGTLLFHNGDNGPADQRPIHDRDDVLCYSTEVLTDPVEVTGTVSARLFVSSSAVDTDFTAKLVDVFPDGRAIALCDGIVRMRYRETLVNPTLIEAGEIYEVAIDMLATSNVFLPGHRIMVQVSSSNFPKYDRNSNTGGVIAREQLEEMCTAVNRIHRGPEHPSHIVLPIIKR
B2: T172R-F189K (protein, UniProt Q9L9D7 1-574, looked up, variant T172R F189K)
Cocaine esterase: MVDGNYSVASNVMVPMRDGVRLAVDLYRPDADGPVPVLLVRNPYDKFDVFAWSTQSTNWLEFVRDGYAVVIQDTRGLFASEGEFVPHVDDEADAEDTLSWILEQAWCDGNVGMFGVSYLGVTQWQAAVSGVGGLKAIAPSMASADLYRAPWYGPGGALSVEALLGWSALIGRGLITSRSDARPEDAADKVQLAAILNDVAGAASVTPLAEQPLLGRLIPWVIDQVVDHPDNDESWQSISLFERLGGLATPALITAGWYDGFVGESLRTFVAVKDNADARLVVGPWSHSNLTGRNADRKFGIAATYPIQEATTMHKAFFDRHLRGETDALAGVPKVRLFVMGIDEWRDETDWPLPDTAYTPFYLGGSGAANTSTGGGTLSTSISGTESADTYLYDPADPVPSLGGTLLFHNGDNGPADQRPIHDRDDVLCYSTEVLTDPVEVTGTVSARLFVSSSAVDTDFTAKLVDVFPDGRAIALCDGIVRMRYRETLVNPTLIEAGEIYEVAIDMLATSNVFLPGHRIMVQVSSSNFPKYDRNSNTGGVIAREQLEEMCTAVNRIHRGPEHPSHIVLPIIKR
B3: T172R/A193D: mutant CocE polypeptide (protein, UniProt Q9L9D7 1-574, looked up, variant T172R A193D)
Cocaine esterase: MVDGNYSVASNVMVPMRDGVRLAVDLYRPDADGPVPVLLVRNPYDKFDVFAWSTQSTNWLEFVRDGYAVVIQDTRGLFASEGEFVPHVDDEADAEDTLSWILEQAWCDGNVGMFGVSYLGVTQWQAAVSGVGGLKAIAPSMASADLYRAPWYGPGGALSVEALLGWSALIGRGLITSRSDARPEDAADFVQLDAILNDVAGAASVTPLAEQPLLGRLIPWVIDQVVDHPDNDESWQSISLFERLGGLATPALITAGWYDGFVGESLRTFVAVKDNADARLVVGPWSHSNLTGRNADRKFGIAATYPIQEATTMHKAFFDRHLRGETDALAGVPKVRLFVMGIDEWRDETDWPLPDTAYTPFYLGGSGAANTSTGGGTLSTSISGTESADTYLYDPADPVPSLGGTLLFHNGDNGPADQRPIHDRDDVLCYSTEVLTDPVEVTGTVSARLFVSSSAVDTDFTAKLVDVFPDGRAIALCDGIVRMRYRETLVNPTLIEAGEIYEVAIDMLATSNVFLPGHRIMVQVSSSNFPKYDRNSNTGGVIAREQLEEMCTAVNRIHRGPEHPSHIVLPIIKR

Assay: Low-UV CD spectra melt with CCA deconvolution
Assay type: physicochemical
Details: for #3 formation: accumulation of the fully melted protein; for #2 formation: formation of the intermediate state; for #1 melt: initial spectra melts, 0.2 mg/ml; for #2 melt: melt of the intermediate state
Method: Low-UV CD spectra data were obtained using an Aviv Spectropolarimeter Mode 400, with the help of Norma Greenfield, UMDNJ, using a 5-cell holder and 0.2 mg/ml protein concentrations. Raw data values obtained were blanked on control PBS, smoothed, and deconvoluted using the CCA algorithm as described by A. Perczel, K. Park, and G. D. Fasman, [Analysis of the circular dichroism spectrum of proteins using the convex constraint algorithm: a practical guide. Analytical Biochemistry 203, 83-93 (1992).] This algorithm finds the minimum number of curves needed to reconstruct a data set, and expresses the percentage each curve contributes to the data set as a function of temperature.
Below is presented a low UV CCA denconvolution analysis of CocE WT and 4 mutants, obtained in a single CD spectra melt using a 5-cell holder. The experiment was performed over the period of 8 hours, from 0-80° C.
Temperature dependent melting was observed between the wavelengths tested (200-250 nm), and the smoothed spectra for each mutant are shown in FIG. 29. […] Dose response analysis was used to approximate the temperature at which the initial spectra melts (1), the formation and melt of the intermediate state (2), and the accumulation of the fully melted protein (3).

Row | Molecule | #3 formation | #2 formation | #1 melt | #2 melt
1 | B1 | 56 °C and 56.61 °C | 45.61 °C | 40 °C and 40.62 °C | 46 °C and 46.17 °C
2 | B2 | 57.23 °C | 46.81 °C | 38.8 °C | 48.42 °C
3 | B3 | 58.72 °C | 46.47 °C | 38.11 °C | 47.68 °C
